Results on 1 substance are retold here after patent US20260234206A1.

The target in assay [1] is calmodulin (UniProt P0DP23). The assay can be described thus: SPR, CaM immobilised, SXkmer A injected, BiaEvaluate fit.
Assay [2] deals with calmodulin (UniProt P0DP23). The assay can be described thus: microscale thermophoresis, labelled SXkmer A with free calmodulin in solution. On the technique in general: MST reads how a fluorescent partner responds to local heating, with and without ligand.

Take “Loop calmodulin binder SXkmer A (KMRPGVN) (designed binder)”: the off-rate (koff) in the assay with calmodulin [1] stood at 1e-06 s⁻¹. Also, the equilibrium dissociation constant (Kd) in the assay with calmodulin [2] stood at 140 nM.

For orientation: koff means the first-order rate constant of dissociation. A higher koff goes with a short-lived complex. The term Kd denotes a measure of binding affinity in units of concentration. Higher therefore signals weaker binding.
